{
  "source": "paper PMC10914751",
  "about": "(Nature Communications, 2024)",
  "binders": {"B1": {"name": "Vpr (co-expressed with VprBP WD40-AR in insect cells) (natural protein)", "chain": "MEQAPEDQGPQREPYNEWTLELLEELKSEAVRHFPRIWLHNLGQHIYETYGDTWAGVEAIIRILQQLLFIHFRIGCRHSRIGVTRQRRARNGASRS", "notes": "also called 11-kDa Vpr"}, "B2": {"name": "VprBP (transfected; construct not specified in the text) (natural protein)", "chain": "not shown", "notes": "VprBP (DDB1-CUL4-Associated Factor 1); may be full length or a WD40-containing fragment, and in some panels perhaps the endogenous protein; source: HEK293T, transfected, in lysate"}, "B3": {"name": "Plk4 CPB(581–808) (domain or fragment, UniProt O00444 581-808, looked up)", "chain": "GYQNRTLRSITSPLVAHRLKPIRQKTKKAVVSILDSEEVCVELVKEYASQEYVKEVLQISSDGNTITIYYPNGGRGFPLADRPPSPTDNISRYSFDNLPEKYWRKYQYASRFVQLVRSKSPKITYFTRYAKCILMENSPGADFEVWFYDGVKIHKTEDFIQVIEKTGKSYTLKSESEVNSLKEEIKMYMDHANEGHRICLALESIISEEERKTRSAPFFPIIIGRKPG", "notes": "Polo-like kinase 4 (Plk4), cryptic polo-box (CPB), residues 581-808; a TEV site follows His-MBP and the legends call the protein CPB(581–808); Two CPB chains are estimated for each Vpr•VprBP; source: E. coli, purified"}, "B4": {"name": "VprBP WD40-AR(1057–1507) (domain or fragment)", "chain": "not shown", "notes": "source: Trichoplusia ni (Tni)-FNL insect cells, purified (HisTrap, TEV digestion, SEC); not shown: His, N-terminal, cleaved; MBP, N-terminal, cleaved"}},
  "key": {"Plk4 CPB(581–808)": {"target": "B3", "test": "SEC; purified proteins (Vpr, VprBP WD40-AR, Plk4 CPB, DDB1); TEV-digested HisTrap eluate of Vpr•VprBP mixed with Plk4 CPB; 20 mM Tris-HCl pH 7.5, 100 mM NaCl, 10% glycerol; stoichiometry estimated from Coomassie intensity", "details": "both partners purified"}, "Plk1": {"target": "T1, Plk1 (UniProt P53350 1-603)", "T1 construct": "Polo-like kinase 1 (Plk1); also called mitotic Plk1; source: HEK293T, transfected, in lysate", "T1 sequence (P53350 whole entry)": "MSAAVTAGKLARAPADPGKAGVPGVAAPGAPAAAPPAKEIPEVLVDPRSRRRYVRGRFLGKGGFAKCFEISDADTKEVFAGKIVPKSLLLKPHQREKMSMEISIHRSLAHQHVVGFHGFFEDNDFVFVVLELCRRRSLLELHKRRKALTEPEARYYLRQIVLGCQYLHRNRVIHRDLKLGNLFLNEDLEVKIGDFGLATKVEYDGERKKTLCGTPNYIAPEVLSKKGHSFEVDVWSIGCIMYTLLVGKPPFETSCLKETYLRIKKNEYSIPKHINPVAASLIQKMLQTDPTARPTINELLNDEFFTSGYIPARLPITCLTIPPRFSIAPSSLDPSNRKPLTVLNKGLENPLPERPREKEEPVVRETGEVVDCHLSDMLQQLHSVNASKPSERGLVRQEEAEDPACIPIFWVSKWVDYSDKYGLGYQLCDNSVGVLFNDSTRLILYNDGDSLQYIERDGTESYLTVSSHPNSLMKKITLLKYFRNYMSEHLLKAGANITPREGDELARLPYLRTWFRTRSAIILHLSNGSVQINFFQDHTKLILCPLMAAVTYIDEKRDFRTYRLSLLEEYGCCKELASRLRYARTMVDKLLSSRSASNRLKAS", "test": "co-IP; HEK293T cells transfected with the indicated constructs; TBSN buffer (20 mM Tris-HCl pH 8.0, 120 mM NaCl, 0.5% Nonidet P-40, 5 mM EGTA, 1.5 mM EDTA, 2 mM DTT); immunoblot; Supplementary Fig. 2b under thymidine or nocodazole treatment", "details": "partners not purified"}, "[1]": {"target": "T2, Vpr•VprBP WD40-AR complex ( | HIV-1 (NL4-3 isolate), UniProt Q9Y4B6 1057-1507; P12520 1-96)", "T2 construct": "DNA synthesised by GenScript; TEV digestion is told for the SEC sample; also called VprBP (WD40-AR)•Vpr complex; source: Trichoplusia ni (Tni)-FNL insect cells, co-expressed, purified (HisTrap, TEV digestion); not shown: His, N-terminal, cleaved; MBP, N-terminal, cleaved; copies: 1 + 1", "test": "SEC; purified proteins (Vpr, VprBP WD40-AR, Plk4 CPB, DDB1); TEV-digested HisTrap eluate of Vpr•VprBP mixed with Plk4 CPB; 20 mM Tris-HCl pH 7.5, 100 mM NaCl, 10% glycerol; stoichiometry estimated from Coomassie intensity", "details": "both partners purified"}, "DDB1 (purified)": {"target": "T3, DDB1 (purified) (UniProt Q16531 1-1140)", "T3 construct": "DDB1", "T3 sequence (Q16531 whole entry)": "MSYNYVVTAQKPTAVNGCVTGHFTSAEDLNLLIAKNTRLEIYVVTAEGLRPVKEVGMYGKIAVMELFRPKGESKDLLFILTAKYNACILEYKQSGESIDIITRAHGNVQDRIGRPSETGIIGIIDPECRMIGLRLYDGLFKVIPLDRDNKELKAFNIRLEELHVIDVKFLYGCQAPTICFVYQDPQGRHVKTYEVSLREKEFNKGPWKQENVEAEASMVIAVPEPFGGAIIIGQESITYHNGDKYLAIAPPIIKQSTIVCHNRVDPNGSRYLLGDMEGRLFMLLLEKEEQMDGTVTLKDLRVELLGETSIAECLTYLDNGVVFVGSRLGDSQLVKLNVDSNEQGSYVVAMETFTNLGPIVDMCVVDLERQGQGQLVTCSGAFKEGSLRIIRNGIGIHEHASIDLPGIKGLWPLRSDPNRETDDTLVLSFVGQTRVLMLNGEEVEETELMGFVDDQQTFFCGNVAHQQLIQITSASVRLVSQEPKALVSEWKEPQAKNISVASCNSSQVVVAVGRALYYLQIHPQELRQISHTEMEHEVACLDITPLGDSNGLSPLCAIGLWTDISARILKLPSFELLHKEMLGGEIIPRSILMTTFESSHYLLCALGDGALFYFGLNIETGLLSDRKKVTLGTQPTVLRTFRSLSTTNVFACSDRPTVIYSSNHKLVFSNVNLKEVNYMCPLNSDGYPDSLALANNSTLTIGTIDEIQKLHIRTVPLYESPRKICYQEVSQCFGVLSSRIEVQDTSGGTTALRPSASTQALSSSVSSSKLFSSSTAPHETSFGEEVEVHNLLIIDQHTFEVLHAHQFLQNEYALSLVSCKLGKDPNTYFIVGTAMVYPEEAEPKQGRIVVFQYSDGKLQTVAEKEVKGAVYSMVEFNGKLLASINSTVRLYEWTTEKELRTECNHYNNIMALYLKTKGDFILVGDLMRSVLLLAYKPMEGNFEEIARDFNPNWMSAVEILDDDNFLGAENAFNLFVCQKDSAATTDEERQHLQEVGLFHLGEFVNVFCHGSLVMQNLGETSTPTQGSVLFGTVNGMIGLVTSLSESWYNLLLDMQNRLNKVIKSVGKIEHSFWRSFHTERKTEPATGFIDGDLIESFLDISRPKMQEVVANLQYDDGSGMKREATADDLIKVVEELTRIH", "test": "SEC; purified proteins (Vpr, VprBP WD40-AR, Plk4 CPB, DDB1); TEV-digested HisTrap eluate of Vpr•VprBP mixed with Plk4 CPB; 20 mM Tris-HCl pH 7.5, 100 mM NaCl, 10% glycerol; stoichiometry estimated from Coomassie intensity", "details": "both partners purified"}},
  "data": [
    {"binder": "B1", "values": [
      {"measurement": "binding result", "setting": "Plk4 CPB(581–808)", "result": "binds"}
    ]},
    {"binder": "B2", "values": [
      {"measurement": "fold weaker binding than Plk4", "setting": "Plk1", "result": "~3", "unit": "fold"}
    ]},
    {"binder": "B3", "values": [
      {"measurement": "stoichiometry N", "setting": "[1]", "result": "~2"}
    ]},
    {"binder": "B4", "values": [
      {"measurement": "binding result", "setting": "DDB1 (purified)", "result": "binds"}
    ]}
  ]
}
